In US20250122303A1, “TREATMENT AND PREVENTION OF CANCER USING HER3 ANTIGEN-BINDING MOLECULES” (Hummingbird Bioscience Pte. Ltd., priority 2021, published 2025):

What was measured:
HER3-mediated signalling = test: Phospho-western blot of HER3-mediated signalling in cancer cell lines; format: cell-based, human; settings: N87 and FaDu cells, 50 μg/ml 4 hrs, NRG 100 ng/ml
Experimental: Briefly, N87 and FaDu cells were seeded in wells of a 6 well plate with 10% serum at 37° C., 5% CO2. After 16 hrs, cells were starved by culture overnight in 1% FBS cell culture medium (to reduce signalling elicited by growth factors in the serum). On the following day cells were treated with 50 μg/ml anti-HER3 antibody 10D1 for 4 hrs, followed by 15 min stimulation with NRG (100 ng/ml). Proteins were then extracted, quantified using standard Bradford protein assay, fractionated by SDS-PAGE, and transferred to nitrocellulose membranes. The membranes were then blocked and immunoblotted with the following antibodies overnight at 4° C. anti-pHER3, anti-pAKT, pan anti-HER3, pan anti-AKT and anti-beta-actin. The blots were visualized via Bio-Rad Clarity Western ECL substrate, and bands were quantified using densiometric analysis; data were normalized to beta actin controls.
N87, FaDu or OvCAR8 cells were seeded in wells in a 6 well plate with 10% serum overnight at 37° C. with 5% CO2.
Before harvesting, cells were stimulated with 100 ng/ml of NRG1. Protein extracted from cell lines were quantified using standard Bradford protein assay. Protein samples (50 μg) were fractionated by SDS-PAGE and transferred to nitrocellulose membrane. […] The blots were quantified using densiometric analysis and data was normalised to beta actin. […]

rat HER3 = biological target: T1, rat HER3 (Rattus norvegicus, UniProt Q62799); test: ELISA cross-reactivity, rat HER3; format: binding
T1 construct: purchased Sino Biological Inc., China
Experimental: (§1) ELISAs were used to determine the binding specificity of the antibodies. The antibodies were analysed for binding to human HER3 polypeptide, as well as respective mouse, rat and monkey homologues of HER3 (Sino Biological Inc., China). The antibodies were also analysed for their ability to bind to human EGFR and human HER2 (Sino Biological Inc., China).
(§2) ELISAs were carried out according to standard protocols. Briefly, 96-well plates (Nunc, Denmark) were coated with 0.1 μg/ml of target polypeptide in phosphate-buffered saline (PBS) for 16 h at 4° C. After blocking for 1 h with 1% BSA in Tris buffer saline (TBS) at room temperature, the anti-HER3 antibody was serially diluted with the highest concentration being 10 μg/ml, and added to the plate. Post 1 h incubation at room temperature, plates were washed three times with TBS containing 0.05% Tween 20 (TBS-T) and were then incubated with a HRP-conjugated anti-His antibody (Life Technologies, Inc., USA) for 1 h at room temperature. After washing, plates were developed with colorimetric detection substrate 3,3′,5,5′-tetramethylbenzidine (Turbo-TMB; Pierce, USA) for 10 min. The reaction was stopped with 2M H2SO4, and OD was measured at 450 nm. […]

[1] = test system: A549 cell-line derived mouse model of lung adenocarcinoma; test: A549 cell-line derived xenograft model; format: in vivo; settings: A549, NCr nude mice, IP biweekly 500 μg, 10 doses
[2] = test system: N87 cell-line derived mouse gastric carcinoma model; test: N87 cell-line derived xenograft model; format: in vivo; settings: N87, IP biweekly 500 μg, 10 doses
Experimental: Tumor volumes were measured 3 times a week using a digital caliper and calculated using the formula [L ×W2/2]. Study End point was considered to have been reaches once the tumors of the control arm measured >1.5 cm in length.
The model was established by subcutaneous injection of 1×10^6 N87 cells into the right flank (n=6 mice per treatment group).
10D1 was administered IP, biweekly at 500 μg per dose (for a total of 10 doses); a control treatment group received an equal volume of PBS.
Tumour cells are inserted with matrigel subcutaneously into the right flanks of female NCr nude mice.
Murine tumour efficacy studies were performed using cell-line derived xenograft (CDX) models in mice. Female NCr nude mice (5-8 weeks old, 21-29 g) were subcutaneously implanted with N87, A549, FaDu, OvCAR8 cells. Treatment was initiated when tumours reached approximately 100 to 200 mm^3. Vehicle (PBS) or therapeutic antibodies (25 mg/kg) were administered intraperitoneally (IP) at indicated time points (weekly FaDu and OvCAR8, twice weekly N87 and A549). Tumours were measured twice per week using a calliper and tumour volume (mm^3) was calculated. Each data point represents the mean tumour volume ±SEM (n=8 mice).

human HER3 = human HER3 (Homo sapiens, UniProt P21860); test: Global affinity study, Bio-Layer Interferometry (Octet QK384); format: binding; settings: IgG1 format, 25° C.; read-out: KD
Experimental: The anti-HER3 antibody clones in IgG1 format were analysed for binding affinity to human HER3. Bio-Layer Interferometry (BLI) experiments were performed using the Octet QK384 system (ForteBio). anti-Human IgG Capture (AHC) Octet sensor tips (Pall ForteBio, USA) were used to anti-HER3 antibodies (25 nM). All measurements were performed at 25° C. with agitation at 1000 rpm. Kinetic measurements for antigen binding were performed by loading His-tagged human HER3 antigens at different concentrations for 120 s, followed by a 120 s dissociation time by transferring the biosensors into assay buffer containing wells. Sensograms were referenced for buffer effects and then fitted using the Octet QK384 user software (Pall ForteBio, USA). Kinetic responses were subjected to a global fitting using a one site binding model to obtain values for association (Kon), dissociation (Koff) rate constants and the equilibrium dissociation constant (KD). Only curves that could be reliably fitted with the software (R^2>0.90) were included in the analysis.
Bio-Layer Interferometry (BLI) experiments were performed using the Octet QK384 system (ForteBio). […] Binding was detected using titrated HIS-tagged human HER3 in steps of baseline (60 s), loading (120 s), baseline2 (60 s), association (120 s), dissociation (FcA 120 s, FcB 600 s) and regeneration (15 s). Sensorgrams were analysed as described in Example 3.3. […]

cynomolgus macaque HER3 = test: ELISA cross-reactivity, cynomolgus macaque HER3; format: binding
Experimental: as §1, §2

T1 sequence (Q62799 20-1339): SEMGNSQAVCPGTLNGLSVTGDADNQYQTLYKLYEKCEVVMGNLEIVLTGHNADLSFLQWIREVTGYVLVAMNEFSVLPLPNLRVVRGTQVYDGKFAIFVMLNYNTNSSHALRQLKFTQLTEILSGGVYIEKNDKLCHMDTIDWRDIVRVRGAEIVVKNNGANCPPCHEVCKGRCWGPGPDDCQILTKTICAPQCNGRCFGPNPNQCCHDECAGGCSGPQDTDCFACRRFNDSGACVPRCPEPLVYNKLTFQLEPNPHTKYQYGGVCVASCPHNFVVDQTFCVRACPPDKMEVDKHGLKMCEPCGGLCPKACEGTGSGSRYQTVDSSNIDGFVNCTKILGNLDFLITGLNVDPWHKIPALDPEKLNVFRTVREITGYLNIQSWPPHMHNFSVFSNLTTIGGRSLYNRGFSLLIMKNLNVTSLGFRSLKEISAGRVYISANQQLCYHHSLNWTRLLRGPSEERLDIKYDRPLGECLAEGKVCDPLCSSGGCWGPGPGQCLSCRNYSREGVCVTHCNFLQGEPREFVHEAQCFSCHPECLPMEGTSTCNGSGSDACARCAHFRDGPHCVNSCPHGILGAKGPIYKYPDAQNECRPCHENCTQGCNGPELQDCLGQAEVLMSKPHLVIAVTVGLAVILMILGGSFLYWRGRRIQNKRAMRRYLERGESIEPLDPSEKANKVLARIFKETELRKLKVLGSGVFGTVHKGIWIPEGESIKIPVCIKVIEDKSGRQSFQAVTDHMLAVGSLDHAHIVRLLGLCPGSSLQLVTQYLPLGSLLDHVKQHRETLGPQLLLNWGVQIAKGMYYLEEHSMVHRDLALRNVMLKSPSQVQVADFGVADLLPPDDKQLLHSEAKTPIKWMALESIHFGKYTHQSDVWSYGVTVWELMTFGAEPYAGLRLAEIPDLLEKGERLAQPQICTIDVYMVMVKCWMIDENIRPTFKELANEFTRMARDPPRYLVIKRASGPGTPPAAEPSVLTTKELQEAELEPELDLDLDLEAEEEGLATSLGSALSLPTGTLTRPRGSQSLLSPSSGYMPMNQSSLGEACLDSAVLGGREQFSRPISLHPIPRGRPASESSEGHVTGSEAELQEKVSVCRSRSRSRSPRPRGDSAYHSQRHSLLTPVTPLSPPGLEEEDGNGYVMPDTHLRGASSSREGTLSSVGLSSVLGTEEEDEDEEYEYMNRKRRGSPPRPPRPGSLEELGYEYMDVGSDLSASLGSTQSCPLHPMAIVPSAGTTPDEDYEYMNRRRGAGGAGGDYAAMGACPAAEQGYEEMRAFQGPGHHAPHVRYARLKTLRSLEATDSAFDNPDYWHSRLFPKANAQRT

B1: 10D1: anti-HER3 antibody clone, VH SEQ ID NO:24, VL SEQ ID NO:74; [1] of Example 2.2 (antibody, V domains shown)
VH: DVQLQESGPDLVKPSQSLSLTCTVTGYSITSGYSWHWIRQFPGNKLEWMGSIHYSGGTNYNPSLKSRISITRDTSKNQFFLQLNSVTTEDTATYFCARMTTAPRYPFDYWGQGTTLTVSS
VL: DIVMTQSQKFMSTSVGDRVSVTCKASQIVGSNVAWYQQKPGQSPKPLIYSASYRYSGVPDRFTASGSGTDFTLTITNVQSEDLAEYFCQQYSSHPLTFGAGTKLELK
HER3-mediated signalling
  HER3 phosphorylation and downstream signalling: inhibit HER3 phosphorylation and downstream signalling
Rat HER3
  binding / cross-reactivity with rat HER3: substantial cross-reactivity
[1]
  inhibition of tumor growth: ~91%
[2]
  inhibition of tumor growth: ~76%
Human HER3
  Kd: 9.58 nM
Cynomolgus macaque HER3
  binding / cross-reactivity with cynomolgus macaque HER3: substantial cross-reactivity
